Source: patent US20030068675, “Position dependent recognition of GNN nucleotide triplets by zinc fingers” (published 2003)

Tests used:
Assay in all cases: EMSA
Settings in all cases: tags: MBP fusion
ZFP SBS#765 = biological target: T1, ZFP SBS#765 (synthetic)
T1 chain: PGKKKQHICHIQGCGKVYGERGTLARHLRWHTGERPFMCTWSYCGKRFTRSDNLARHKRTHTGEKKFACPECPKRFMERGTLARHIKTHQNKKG
Method in brief: (§1)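 Purified ZFP was titrated against labeled double-stranded target (1 nM or lower, at least 10-fold below expected Kd) carrying the natural binding site with flanks. Binding buffer was 10 mM Tris pH 7.5, 100 mM KCl, 1 mM MgCl2, 0.1 mM ZnCl2, 5 mM DTT, 10% glycerol, 0.02% BSA, with equilibration for at least 45 min. Bound and free target were separated on a 10% polyacrylamide gel.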

ZFP SBS#766 = biological target: T2, ZFP SBS#766 (synthetic)
T2 chain: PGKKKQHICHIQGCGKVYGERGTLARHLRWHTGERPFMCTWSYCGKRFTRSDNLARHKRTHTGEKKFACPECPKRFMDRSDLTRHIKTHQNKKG
Method in brief: as §1

ZFP SBS#763 = ZFP SBS#763 (synthetic)
Method in brief: as §1

ZFP SBS#764 = ZFP SBS#764 (synthetic)
Method in brief: as §1

ZFP SBS#797 = biological target: T3, ZFP SBS#797 (synthetic)
T3 chain: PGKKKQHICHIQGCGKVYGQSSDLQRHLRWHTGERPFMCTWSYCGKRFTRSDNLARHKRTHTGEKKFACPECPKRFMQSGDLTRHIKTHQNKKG
Method in brief: as §1

ZFP SBS#682 = ZFP SBS#682 (synthetic)
Method in brief: as §1

ZFP SBS#684 = ZFP SBS#684 (synthetic)
Method in brief: as §1

ZFP SBS#685 = ZFP SBS#685 (synthetic)
Method in brief: as §1

ZFP SBS#681 = ZFP SBS#681 (synthetic)
Method in brief: as §1

ZFP SBS#683 = biological target: T4, ZFP SBS#683 (synthetic)
T4 chain: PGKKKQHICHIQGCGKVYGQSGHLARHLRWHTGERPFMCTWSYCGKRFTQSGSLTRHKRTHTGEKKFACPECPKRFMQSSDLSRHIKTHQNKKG
Method in brief: as §1

ZFP SBS#770 = biological target: T5, ZFP SBS#770 (synthetic)
T5 chain: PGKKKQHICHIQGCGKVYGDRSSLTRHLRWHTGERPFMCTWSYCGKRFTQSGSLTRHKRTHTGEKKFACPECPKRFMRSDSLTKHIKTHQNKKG
Method in brief: as §1

ZFP SBS#800 = biological target: T6, ZFP SBS#800 (synthetic)
T6 chain: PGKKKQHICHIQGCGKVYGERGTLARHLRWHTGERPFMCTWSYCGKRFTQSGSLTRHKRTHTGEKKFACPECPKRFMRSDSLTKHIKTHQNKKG
Method in brief: as §1

ZFP SBS#849 = biological target: T7, ZFP SBS#849 (synthetic)
T7 chain: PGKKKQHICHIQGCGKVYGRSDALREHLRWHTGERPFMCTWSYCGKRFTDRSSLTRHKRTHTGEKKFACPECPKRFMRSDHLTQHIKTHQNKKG
Method in brief: as §1

ZFP SBS#837 = biological target: T8, ZFP SBS#837 (synthetic)
T8 chain: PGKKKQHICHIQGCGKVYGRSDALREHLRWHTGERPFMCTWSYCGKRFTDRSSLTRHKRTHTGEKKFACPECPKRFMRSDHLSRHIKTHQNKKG
Method in brief: as §1

ZFP SBS#838 = biological target: T9, ZFP SBS#838 (synthetic)
T9 chain: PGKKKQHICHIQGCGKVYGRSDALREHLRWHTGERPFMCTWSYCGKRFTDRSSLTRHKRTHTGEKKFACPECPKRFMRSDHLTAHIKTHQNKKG
Method in brief: as §1

ZFP SBS#253 = ZFP SBS#253 (synthetic)
Method in brief: as §1

ZFP SBS#774 = biological target: T10, ZFP SBS#774 (synthetic)
T10 chain: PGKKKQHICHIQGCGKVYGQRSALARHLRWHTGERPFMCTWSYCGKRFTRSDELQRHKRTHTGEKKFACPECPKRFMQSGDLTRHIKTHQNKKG
Method in brief: as §1

ZFP SBS#773 = ZFP SBS#773 (synthetic)
Method in brief: as §1

ZFP SBS#805 = biological target: T11, ZFP SBS#805 (synthetic)
T11 chain: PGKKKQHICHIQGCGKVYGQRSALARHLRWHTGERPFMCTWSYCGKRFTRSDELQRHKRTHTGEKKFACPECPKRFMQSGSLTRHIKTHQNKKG
Method in brief: as §1

ZFP SBS#775 = biological target: T12, ZFP SBS#775 (synthetic)
T12 chain: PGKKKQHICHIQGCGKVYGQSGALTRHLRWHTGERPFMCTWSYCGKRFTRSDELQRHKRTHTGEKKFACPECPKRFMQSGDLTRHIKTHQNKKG
Method in brief: as §1

ZFP SBS#833 = biological target: T13, ZFP SBS#833 (synthetic)
T13 chain: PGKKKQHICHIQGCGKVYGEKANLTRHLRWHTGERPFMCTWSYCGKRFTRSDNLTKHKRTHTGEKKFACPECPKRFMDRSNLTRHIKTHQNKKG
Method in brief: as §1

ZFP SBS#834 = biological target: T14, ZFP SBS#834 (synthetic)
T14 chain: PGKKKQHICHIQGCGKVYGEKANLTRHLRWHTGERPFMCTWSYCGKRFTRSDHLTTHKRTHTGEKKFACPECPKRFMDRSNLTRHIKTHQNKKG
Method in brief: as §1

ZFP SBS#832 = biological target: T15, ZFP SBS#832 (synthetic)
T15 chain: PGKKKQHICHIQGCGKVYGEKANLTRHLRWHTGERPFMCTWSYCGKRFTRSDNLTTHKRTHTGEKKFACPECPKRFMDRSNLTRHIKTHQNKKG
Method in brief: as §1

ZFP SBS#799 = ZFP SBS#799 (synthetic)
Method in brief: as §1

ZFP SBS#798 = ZFP SBS#798 (synthetic, UniProt P08047)
Method in brief: as §1

ZFP SBS#767 = ZFP SBS#767 (synthetic, UniProt P08047)
Method in brief: as §1

ZFP SBS#768 = ZFP SBS#768 (synthetic)
Method in brief: as §1

ZFP SBS#845 = ZFP SBS#845 (synthetic)
Method in brief: as §1

ZFP SBS#846 = biological target: T16, ZFP SBS#846 (synthetic)
T16 chain: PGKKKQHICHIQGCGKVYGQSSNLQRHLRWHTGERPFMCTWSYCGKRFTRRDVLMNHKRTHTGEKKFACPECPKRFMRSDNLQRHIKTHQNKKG
Method in brief: as §1

ZFP SBS#844 = ZFP SBS#844 (synthetic)
Method in brief: as §1

ZFP SBS#851 = biological target: T17, ZFP SBS#851 (synthetic)
T17 chain: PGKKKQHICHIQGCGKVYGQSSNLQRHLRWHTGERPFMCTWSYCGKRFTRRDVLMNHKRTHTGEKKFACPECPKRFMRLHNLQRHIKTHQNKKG
Method in brief: as §1

ZFP SBS#840 = biological target: T18, ZFP SBS#840 (synthetic)
T18 chain: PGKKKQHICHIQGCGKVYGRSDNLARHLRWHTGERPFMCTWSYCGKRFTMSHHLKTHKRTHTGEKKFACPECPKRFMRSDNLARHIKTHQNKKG
Method in brief: as §1

ZFP SBS#841 = biological target: T19, ZFP SBS#841 (synthetic)
T19 chain: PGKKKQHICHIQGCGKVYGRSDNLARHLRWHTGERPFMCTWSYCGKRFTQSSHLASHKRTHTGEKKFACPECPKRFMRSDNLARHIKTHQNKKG
Method in brief: as §1

ZFP SBS#839 = biological target: T20, ZFP SBS#839 (synthetic)
T20 chain: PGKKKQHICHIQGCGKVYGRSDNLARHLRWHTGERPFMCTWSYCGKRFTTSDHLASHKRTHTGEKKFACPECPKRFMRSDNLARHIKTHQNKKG
Method in brief: as §1

ZFP SBS#830 = ZFP SBS#830 (synthetic)
Method in brief: as §1

ZFP SBS#831 = ZFP SBS#831 (synthetic)
Method in brief: as §1

ZFP SBS#681 (synthetic), sequence (chain, as listed by the source): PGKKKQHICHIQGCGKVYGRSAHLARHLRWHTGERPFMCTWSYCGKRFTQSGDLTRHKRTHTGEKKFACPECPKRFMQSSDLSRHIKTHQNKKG
ZFP SBS#830 (synthetic), sequence (chain, as listed by the source): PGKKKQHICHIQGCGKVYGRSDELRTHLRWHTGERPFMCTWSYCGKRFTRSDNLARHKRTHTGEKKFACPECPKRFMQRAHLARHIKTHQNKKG
ZFP SBS#798, sequence (P08047 other isoform, or with tags, fused parts or gaps): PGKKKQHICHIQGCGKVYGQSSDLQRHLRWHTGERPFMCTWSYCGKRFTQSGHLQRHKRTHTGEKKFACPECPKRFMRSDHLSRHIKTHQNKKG
ZFP SBS#845 (synthetic), sequence (chain, as listed by the source): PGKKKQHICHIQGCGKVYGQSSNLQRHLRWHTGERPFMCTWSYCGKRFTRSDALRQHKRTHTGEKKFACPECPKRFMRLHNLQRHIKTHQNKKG
ZFP SBS#768 (synthetic), sequence (chain, as listed by the source): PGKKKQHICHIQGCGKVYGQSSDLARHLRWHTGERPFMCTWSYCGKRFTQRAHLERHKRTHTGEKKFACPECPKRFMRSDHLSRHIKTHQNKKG
ZFP SBS#831 (synthetic), sequence (chain, as listed by the source): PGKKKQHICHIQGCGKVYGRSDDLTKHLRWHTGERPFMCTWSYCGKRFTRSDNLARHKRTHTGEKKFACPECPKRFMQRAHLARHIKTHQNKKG
ZFP SBS#684 (synthetic), sequence (chain, as listed by the source): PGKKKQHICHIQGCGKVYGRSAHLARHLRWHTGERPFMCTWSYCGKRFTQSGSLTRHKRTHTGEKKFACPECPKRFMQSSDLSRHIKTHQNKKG
ZFP SBS#844 (synthetic), sequence (chain, as listed by the source): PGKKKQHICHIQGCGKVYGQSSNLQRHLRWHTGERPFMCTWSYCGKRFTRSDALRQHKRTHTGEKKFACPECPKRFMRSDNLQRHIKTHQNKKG
ZFP SBS#799 (synthetic), sequence (chain, as listed by the source): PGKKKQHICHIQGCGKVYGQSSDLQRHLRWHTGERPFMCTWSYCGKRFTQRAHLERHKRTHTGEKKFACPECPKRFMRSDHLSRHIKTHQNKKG
ZFP SBS#763 (synthetic), sequence (chain, as listed by the source): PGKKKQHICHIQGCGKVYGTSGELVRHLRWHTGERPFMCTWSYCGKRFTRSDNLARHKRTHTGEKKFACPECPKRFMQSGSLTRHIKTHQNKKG
ZFP SBS#685 (synthetic), sequence (chain, as listed by the source): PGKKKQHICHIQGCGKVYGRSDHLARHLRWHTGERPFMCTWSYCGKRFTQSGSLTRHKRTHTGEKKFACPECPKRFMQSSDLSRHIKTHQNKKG
ZFP SBS#767, sequence (P08047 other isoform, or with tags, fused parts or gaps): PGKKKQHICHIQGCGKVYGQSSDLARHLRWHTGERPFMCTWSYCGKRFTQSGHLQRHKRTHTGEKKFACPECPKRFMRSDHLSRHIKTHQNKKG

B1: GCCGAGGCCG (dsDNA)
DNA 1: GCCGAGGCCG
DNA 2: CGGCCTCGGC
B1 showed a Kd (ZFP SBS#765) of 262 nM and a Kd (ZFP SBS#766) of 262 nM.

B2: GCAGAGGCTC (dsDNA)
DNA 1: GCAGAGGCTC
DNA 2: GAGCCTCTGC
Binder B2 has a Kd (ZFP SBS#763) of 275 nM.

B3: GCAGAGGCTG (dsDNA)
DNA 1: GCAGAGGCTG
DNA 2: CAGCCTCTGC
Binder B3 has a Kd (ZFP SBS#764) of 255 nM and a Kd (ZFP SBS#797) of 17.5 nM.

B4: GCTGCAGGAG (dsDNA)
DNA 1: GCTGCAGGAG
DNA 2: CTCCTGCAGC
B4 was tested, and the Kd (ZFP SBS#682) was 90 nM, the Kd (ZFP SBS#684) was 850 nM and the Kd (ZFP SBS#685) was 150 nM. The Kd (ZFP SBS#681) was 3000 nM and the Kd (ZFP SBS#683) was 500 nM.

B5: TTGGCAGCCT (dsDNA)
DNA 1: TTGGCAGCCT
DNA 2: AGGCTGCCAA
With B5 the Kd (ZFP SBS#770) was 325 nM and the Kd (ZFP SBS#800) was 400 nM.

B6: GGGGCCCTGG (dsDNA)
DNA 1: GGGGCCCTGG
DNA 2: CCAGGGCCCC
In the case of B6, the Kd (ZFP SBS#849) is reported as 29.1 nM, the Kd (ZFP SBS#837) is reported as 222 nM and the Kd (ZFP SBS#838) is reported as 300 nM.

B7: GGATGGGGG (dsDNA)
DNA 1: GGATGGGGG
DNA 2: CCCCCATCC
For B7, the Kd (ZFP SBS#253) was 0.75 nM.

B8: GCAGCGGTAG (dsDNA)
DNA 1: GCAGCGGTAG
DNA 2: CTACCGCTGC
B8 was tested, and the Kd (ZFP SBS#774) was 258 nM, the Kd (ZFP SBS#773) was 1250 nM and the Kd (ZFP SBS#805) was 500 nM. It also gave a Kd (ZFP SBS#775) of 265 nM.

B9: GACTAGGACC (dsDNA)
DNA 1: GACTAGGACC
DNA 2: GGTCCTAGTC
B9 was tested, and the Kd (ZFP SBS#833) was 136 nM, the Kd (ZFP SBS#834) was 186 nM and the Kd (ZFP SBS#832) was 408 nM.

B10: GGGGGAGCTG (dsDNA)
DNA 1: GGGGGAGCTG
DNA 2: CAGCTCCCCC
Work on B10 yielded a Kd (ZFP SBS#799) of 1.85 nM, a Kd (ZFP SBS#798) of 3 nM and a Kd (ZFP SBS#767) of 335 nM. The Kd (ZFP SBS#768) was 2000 nM.

B11: GAGATGGATC (dsDNA)
DNA 1: GAGATGGATC
DNA 2: GATCCATCTC
Work on B11 yielded a Kd (ZFP SBS#845) of 112 nM, a Kd (ZFP SBS#846) of 890 nM and a Kd (ZFP SBS#844) of 444 nM. The Kd (ZFP SBS#851) was 74 nM.

B12: GAGTGTGAGG (dsDNA)
DNA 1: GAGTGTGAGG
DNA 2: CCTCACACTC
B12 showed a Kd (ZFP SBS#840) of 625 nM, a Kd (ZFP SBS#841) of 300 nM and a Kd (ZFP SBS#839) of 625 nM.

B13: GGAGAGTCGG (dsDNA)
DNA 1: GGAGAGTCGG
DNA 2: CCGACTCTCC
For B13, the Kd (ZFP SBS#830) was 683 nM and the Kd (ZFP SBS#831) was 700 nM.
